We go through 41 molecules from patent publication US20200216495A1 (ADRX, published 2020).

Where “and” joins values, the source holds several entries; their conditions need not be identical. Equal values may be shown once. Square brackets hold non-standard residues; d marks the D form. Ends that are not written are not given here. dMet(O) = CS(=O)CC[C@@H](N)C(=O)O

B1: wklwlrww (peptide)
peptide: [dW][dK][dL][dW][dL][dR][dW][dW]
B2: rlrirw (peptide)
peptide: [dR][dL][dR][dI][dR][dW]
B3: lkiriha (peptide)
peptide: [dL][dK][dI][dR][dI][dH][dA]
B4: kikikw (peptide)
peptide: [dK][dI][dK][dI][dK][dW]
B5: lelkikfw (peptide)
peptide: [dL][dE][dL][dK][dI][dK][dF][dW]
B6: lkiyihy (peptide)
peptide: [dL][dK][dI][dY][dI][dH][dY]
B7: wklvvw (peptide)
peptide: [dW][dK][dL][dV][dV][dW]
B8: lkixihy (peptide)
peptide: [dL][dK][dI][dMet(O)][dI][dH][dY]
B9: klklkw (peptide)
peptide: [dK][dL][dK][dL][dK][dW]
B10: whvkfelf (peptide)
peptide: [dW][dH][dV][dK][dF][dE][dL][dF]
B11: lkiaihy (peptide)
peptide: [dL][dK][dI][dA][dI][dH][dY]
B12: wrltihw (peptide)
peptide: [dW][dR][dL][dT][dI][dH][dW]
B13: fkirihyh (peptide)
peptide: [dF][dK][dI][dR][dI][dH][dY][dH]
B14: wrlrifw (peptide)
peptide: [dW][dR][dL][dR][dI][dF][dW]
B15: wrlkvdw (peptide)
peptide: [dW][dR][dL][dK][dV][dD][dW]
B16: trlrihw (peptide)
peptide: [dT][dR][dL][dR][dI][dH][dW]
B17: lklkikhf (peptide)
peptide: [dL][dK][dL][dK][dI][dK][dH][dF]
B18: wdlkvrw (peptide)
peptide: [dW][dD][dL][dK][dV][dR][dW]
B19: wrarihw (peptide)
peptide: [dW][dR][dA][dR][dI][dH][dW]
B20: wrlkvra (peptide)
peptide: [dW][dR][dL][dK][dV][dR][dA]
B21: wrlkhrw (peptide)
peptide: [dW][dR][dL][dK][dH][dR][dW]
B22: welkvew (peptide)
peptide: [dW][dE][dL][dK][dV][dE][dW]
B23: wrlktrw (peptide)
peptide: [dW][dR][dL][dK][dT][dR][dW]
B24: wrlrmhw (peptide)
peptide: [dW][dR][dL][dR][dM][dH][dW]
B25: rrlrihw (peptide)
peptide: [dR][dR][dL][dR][dI][dH][dW]
B26: rlkirw (peptide)
peptide: [dR][dL][dK][dI][dR][dW]
B27: lkirrhyh (peptide)
peptide: [dL][dK][dI][dR][dR][dH][dY][dH]
B28: wrlriha (peptide)
peptide: [dW][dR][dL][dR][dI][dH][dA]
B29: erlrihw (peptide)
peptide: [dE][dR][dL][dR][dI][dH][dW]
B30: lkirihy (peptide)
peptide: [dL][dK][dI][dR][dI][dH][dY]
B31: kvrwwwrl (peptide)
peptide: [dK][dV][dR][dW][dW][dW][dR][dL]
B32: wrlrihe (peptide)
peptide: [dW][dR][dL][dR][dI][dH][dE]
B33: irihyhlk (peptide)
peptide: [dI][dR][dI][dH][dY][dH][dL][dK]
B34: vrwwwrlk (peptide)
peptide: [dV][dR][dW][dW][dW][dR][dL][dK]
B35: wrmrihw (peptide)
peptide: [dW][dR][dM][dR][dI][dH][dW]
B36: akirihyh (peptide)
peptide: [dA][dK][dI][dR][dI][dH][dY][dH]
B37: wrtktrw (peptide)
peptide: [dW][dR][dT][dK][dT][dR][dW]
B38: erlkvrww (peptide)
peptide: [dE][dR][dL][dK][dV][dR][dW][dW]
B39: lkarihyh (peptide)
peptide: [dL][dK][dA][dR][dI][dH][dY][dH]
B40: rikirw (peptide)
peptide: [dR][dI][dK][dI][dR][dW]
B41: lkrrihyh (peptide)
peptide: [dL][dK][dR][dR][dI][dH][dY][dH]

In the first experiment the target is Tau40 P301L protein (human). In words: cell-based or functional assay.
Turning to B1, the “IC50, Tau40 assay (ThT)” value worked out at 2.94 µM.
As to B2, the “IC50, Tau40 assay (ThT)” value amounted to 2.96 µM.
With B3, the “IC50, Tau40 assay (ThT)” value came to 2.92 µM.
Same read-out and setting: the figure for B4 is 2.92 µM.
Regarding B5, the “IC50, Tau40 assay (ThT)” value was 2.73 µM and 2.85 µM.
B6: the “IC50, Tau40 assay (ThT)” value worked out at 2.93 µM.
In the case of B7, the “IC50, Tau40 assay (ThT)” value was 2.81 µM.
On to B8, for which the “IC50, Tau40 assay (ThT)” value came to 2.81 µM.
For B9, the “IC50, Tau40 assay (ThT)” value was determined as 2.97 µM.
Take B10: the “IC50, Tau40 assay (ThT)” value came out at 2.88 µM.
In the case of B11, the “IC50, Tau40 assay (ThT)” value was determined as 2.96 µM.
The same measure, in the same setting: as for B12, the figure is 2.76 µM; as for B13, 2.76 µM; as for B14, 2.79 µM.
Same read-out and setting: as for B15, the figure is 2.7 µM; as for B16, 2.7 µM; as for B17, 2.75 µM.
For the molecule B18, the “IC50, Tau40 assay (ThT)” value is 2.76 µM.

Another experiment addresses Ac-VQIINK-NH2 (SEQ ID NO: 23) (N-terminal acetyl (Ac); C-terminal amide (NH2)). The experiment in a line: cell-based or functional assay.
For B19, the “VQIINK Inhibition IC50” value amounted to 19.1 µm.
In the case of B20, the “VQIINK Inhibition IC50” value was determined as 20.5 µm.
In the case of B21, the “VQIINK Inhibition IC50” value came to 13.5 µm.
Take B22: the “VQIINK Inhibition IC50” value is 11 µm.
With B23, the “VQIINK Inhibition IC50” value amounted to 8.61 µm.
In the case of B24, the “VQIINK Inhibition IC50” value was determined as 8.93 µm.
For B25, the “VQIINK Inhibition IC50” value is 12.1 µm.
The same measure, in the same setting: the figure for B26 is 10.9 µm; for B27 it is 10.5 µm; for B28 it is 9.75 µm.
As to B29, the “VQIINK Inhibition IC50” value turned out to be 13.6 µm.
On the same count and under the same terms, as for B30, the figure is 17.6 µm.
For B31, the “VQIINK Inhibition IC50” value stood at 15.2 µm.
For the molecule B32, the “VQIINK Inhibition IC50” value stood at 14.5 µm.
Regarding B33, the “VQIINK Inhibition IC50” value amounted to 8.69 µm.
For B34, the “VQIINK Inhibition IC50” value stood at 9.47 µm.
Same read-out and setting: the figure for B35 is 11.7 µm; for B36 it is 8.93 µm; for B37 it is 13.1 µm.
For B38, the “VQIINK Inhibition IC50” value was determined as 20.4 µm.
For the molecule B39, the “VQIINK Inhibition IC50” value is 10 µm.
On to B40, for which the “VQIINK Inhibition IC50” value came out at 10.8 µm.
Take B41: the “VQIINK Inhibition IC50” value amounted to 31.8 µm.
